Consider one molecule from patent US20220332804A1 (CSL INNOVATION, published 2022).

Test in all cases: SPR, KD relative to WT C2;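 further: biacore SPR at 37 °C, anti-C2 mAbs captured via immobilised goat anti-human IgG, C2 alanine or serine surface mutants as analytes, 1:1 model fitted, double-referenced sensograms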
Background: Surface plasmon resonance follows binding to a sensor surface in real time, without labels.

The target in one assay is T1, human C2 E645A (human, UniProt P06681 21-752).
T1 sequence: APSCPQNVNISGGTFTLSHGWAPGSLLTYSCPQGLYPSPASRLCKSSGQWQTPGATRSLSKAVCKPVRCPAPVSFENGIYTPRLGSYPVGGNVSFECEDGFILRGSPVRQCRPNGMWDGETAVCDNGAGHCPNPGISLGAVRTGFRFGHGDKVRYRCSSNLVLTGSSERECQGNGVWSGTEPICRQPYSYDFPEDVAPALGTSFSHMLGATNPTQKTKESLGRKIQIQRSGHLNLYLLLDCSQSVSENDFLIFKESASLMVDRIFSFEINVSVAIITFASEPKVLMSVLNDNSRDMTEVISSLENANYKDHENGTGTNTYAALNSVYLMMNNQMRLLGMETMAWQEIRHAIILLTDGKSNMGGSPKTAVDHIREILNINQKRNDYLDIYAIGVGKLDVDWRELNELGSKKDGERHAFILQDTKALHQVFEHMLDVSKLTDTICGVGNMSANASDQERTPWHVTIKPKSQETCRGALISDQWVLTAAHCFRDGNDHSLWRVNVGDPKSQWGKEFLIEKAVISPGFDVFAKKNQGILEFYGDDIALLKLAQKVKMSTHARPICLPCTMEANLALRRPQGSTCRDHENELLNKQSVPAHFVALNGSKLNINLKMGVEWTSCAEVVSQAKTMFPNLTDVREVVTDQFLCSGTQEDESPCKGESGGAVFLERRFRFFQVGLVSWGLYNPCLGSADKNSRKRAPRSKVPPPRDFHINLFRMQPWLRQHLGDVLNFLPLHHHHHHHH

A further assay concerns the target T2, human C2 R493A (human, UniProt P06681 21-752).
T2 sequence: T1 sequence with R473A, A625E

Another assay addresses T3, human C2 D454A (human, UniProt P06681 21-752).
T3 sequence: T1 sequence with D434A, A625E

The next assay deals with T4, human C2 M452A (human, UniProt P06681 21-752).
T4 sequence: T1 sequence with M432A, A625E

Positions count from the first letter of the chain named.

B1: RF16-226 (antibody, human IgG4 S228P, lambda)
heavy: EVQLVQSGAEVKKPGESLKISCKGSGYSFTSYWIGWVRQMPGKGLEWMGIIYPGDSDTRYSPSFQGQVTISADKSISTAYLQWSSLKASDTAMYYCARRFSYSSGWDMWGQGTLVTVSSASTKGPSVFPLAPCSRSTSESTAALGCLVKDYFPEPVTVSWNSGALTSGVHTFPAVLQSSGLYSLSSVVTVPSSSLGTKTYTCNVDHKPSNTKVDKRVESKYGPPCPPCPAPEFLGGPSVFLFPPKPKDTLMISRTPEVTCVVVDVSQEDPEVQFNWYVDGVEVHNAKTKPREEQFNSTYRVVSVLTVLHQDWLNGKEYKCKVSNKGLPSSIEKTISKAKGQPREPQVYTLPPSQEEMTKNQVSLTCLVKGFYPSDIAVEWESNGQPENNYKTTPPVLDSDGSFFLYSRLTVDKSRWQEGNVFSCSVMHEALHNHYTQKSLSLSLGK
light: SYELTQPPSVSVSPGQTARITCSGDALTSKYVAWYQQKSGLAPLLVIYEDTRRPSGIPAKFSGSSSGSVATLTISGAHGDDEADYYCYSTDASGHQRVFGGGTKLTVLSQPKAAPSVTLFPPSSEELQANKATLVCLISDFYPGAVTVAWKADGSPVKAGVETTKPSKQSNNKYAASSYLSLTPEQWKSHRSYSCQVTHEGSTVEKTVAPTECS
notes: pH-dependent anti-C2 antibody from a phage display library; also called WT
Turning to B1, the Fold diff with human C2 E645A came to 1 fold; with human C2 R493A, 2 fold; in the assay with human C2 D454A, 25 fold; with human C2 M452A it was 0 fold.
